Experimental data taken from the supplement of paper PMC10567573.

B1: ZNF263 (parent)
chain: LLRHQRIHTGERPYKCPECGKSFS

Variants of: B1
Assay: protein stability index of a GFP-peptide fusion (GPS, HEK-293T) (PSI 1-6); higher = more stable
Conditions: c terminus: a fixed tail appended
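Note: lentivirally expressed fusions sorted by FACS into six bins by GFP to DsRed ratio, PSI derived from sequencing read proportions per bin multiplied by bin number.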

Q: Which protein stability index does the source give for LLRHQRIHTGERPYKCPECGKNFS [S22N] here?
A: The protein stability index was 1.4.

Q: For LLRHQRIHTGERPYKCPECGKMFS [S22M], which protein stability index is on record?
A: Its protein stability index is 2.05.

Q: Which protein stability index does the source give for LLRHQRIHTGERPYKCPECGKFFS [S22F] here?
A: The protein stability index was 2.2.

Q: With LLRHQRIHTGERPYKCPECGKDFS [S22D] as the variant, how does the protein stability index read?
A: The protein stability index was 1.63.

Q: For LLRHQRIHTGERPYKCPECGKCFS [S22C], which protein stability index is on record?
A: The protein stability index was 2.37.

Q: For LLRHQRIHTGARPYKCPECGKSFS [E11A], which protein stability index is on record?
A: The protein stability index was 2.26.

Q: With LLRHQRIHTGIRPYKCPECGKSFS [E11I] as the variant, how does the protein stability index read?
A: Its protein stability index is 1.78.

Q: Which protein stability index does the source give for LLRHQRIHTGNRPYKCPECGKSFS [E11N] here?
A: The protein stability index was 2.32.

Q: With LLRHQRIHTGDRPYKCPECGKSFS [E11D] as the variant, how does the protein stability index read?
A: Its protein stability index is 2.34.

Q: Which protein stability index does the source give for LLRHQRIHTGTRPYKCPECGKSFS [E11T] here?
A: Its protein stability index is 2.51.

Q: Which protein stability index does the source give for LLRHQRIHTGRRPYKCPECGKSFS [E11R] here?
A: Its protein stability index is 3.3.

Q: For LLRHQRIHQGERPYKCPECGKSFS [T9Q], which protein stability index is on record?
A: The protein stability index was 3.1.

Q: With LLRHQRIHCGERPYKCPECGKSFS [T9C] as the variant, how does the protein stability index read?
A: The protein stability index was 2.19.

Q: For LLRHQRIHSGERPYKCPECGKSFS [T9S], which protein stability index is on record?
A: Its protein stability index is 1.88.

Q: With LLRHQRIHKGERPYKCPECGKSFS [T9K] as the variant, how does the protein stability index read?
A: Its protein stability index is 2.41.

Q: For LLRHQRIHRGERPYKCPECGKSFS [T9R], which protein stability index is on record?
A: Its protein stability index is 2.14.

Q: Which protein stability index does the source give for LLRHQRIHEGERPYKCPECGKSFS [T9E] here?
A: The protein stability index was 2.62.

Q: For LLRHQRIHLGERPYKCPECGKSFS [T9L], which protein stability index is on record?
A: The protein stability index was 3.29.

Q: With LLRHQRIHPGERPYKCPECGKSFS [T9P] as the variant, how does the protein stability index read?
A: The protein stability index was 2.45.

Q: Which protein stability index does the source give for LLRHQRIHHGERPYKCPECGKSFS [T9H] here?
A: Its protein stability index is 2.21.

Q: With LLRHQRIHYGERPYKCPECGKSFS [T9Y] as the variant, how does the protein stability index read?
A: Its protein stability index is 2.56.

Q: Which protein stability index does the source give for LLRHQRMHTGERPYKCPECGKSFS [I7M] here?
A: Its protein stability index is 2.66.

Q: With LLRHQRVHTGERPYKCPECGKSFS [I7V] as the variant, how does the protein stability index read?
A: Its protein stability index is 2.27.

Q: For LLRHQRLHTGERPYKCPECGKSFS [I7L], which protein stability index is on record?
A: The protein stability index was 1.94.

Q: Which protein stability index does the source give for LLRHQRGHTGERPYKCPECGKSFS [I7G] here?
A: The protein stability index was 2.48.

Q: Which protein stability index does the source give for LLRHQRCHTGERPYKCPECGKSFS [I7C] here?
A: Its protein stability index is 2.48.

Q: With LLRHQRYHTGERPYKCPECGKSFS [I7Y] as the variant, how does the protein stability index read?
A: The protein stability index was 1.77.

Q: Which protein stability index does the source give for LLRHQRHHTGERPYKCPECGKSFS [I7H] here?
A: Its protein stability index is 2.68.

Q: With LLRHQRWHTGERPYKCPECGKSFS [I7W] as the variant, how does the protein stability index read?
A: The protein stability index was 2.17.

Q: With LLRHQRDHTGERPYKCPECGKSFS [I7D] as the variant, how does the protein stability index read?
A: The protein stability index was 3.06.

Q: Which protein stability index does the source give for LLRHQRPHTGERPYKCPECGKSFS [I7P] here?
A: Its protein stability index is 2.56.

Q: For LLRHQRICTGERPYKCPECGKSFS [H8C], which protein stability index is on record?
A: The protein stability index was 2.03.

Q: For LLRHQRIETGERPYKCPECGKSFS [H8E], which protein stability index is on record?
A: The protein stability index was 2.52.

Q: For LLRHQRIGTGERPYKCPECGKSFS [H8G], which protein stability index is on record?
A: Its protein stability index is 2.39.

Q: With LLRHQRIRTGERPYKCPECGKSFS [H8R] as the variant, how does the protein stability index read?
A: Its protein stability index is 1.37.

Q: With LLRHQRINTGERPYKCPECGKSFS [H8N] as the variant, how does the protein stability index read?
A: Its protein stability index is 2.88.

Q: Which protein stability index does the source give for LLRHQRIFTGERPYKCPECGKSFS [H8F] here?
A: Its protein stability index is 2.04.

Q: Which protein stability index does the source give for LLRHQRILTGERPYKCPECGKSFS [H8L] here?
A: Its protein stability index is 1.85.

Q: Which protein stability index does the source give for LLRHQRIQTGERPYKCPECGKSFS [H8Q] here?
A: Its protein stability index is 2.52.

Q: For LLRHQRIWTGERPYKCPECGKSFS [H8W], which protein stability index is on record?
A: The protein stability index was 1.73.

Q: For LLRHQRIHTGERPYKCPECSKSFS [G20S], which protein stability index is on record?
A: Its protein stability index is 1.95.

Q: Which protein stability index does the source give for LLRHQRIHTGERPYKCPECKKSFS [G20K] here?
A: Its protein stability index is 2.27.

Q: For LLRHQRIHTGERPYKCPECQKSFS [G20Q], which protein stability index is on record?
A: The protein stability index was 1.86.

Q: With LLRHQRIHTGERPYKCPECDKSFS [G20D] as the variant, how does the protein stability index read?
A: The protein stability index was 2.52.

Q: With LLRHQRIHTGERPYKCPECTKSFS [G20T] as the variant, how does the protein stability index read?
A: Its protein stability index is 2.17.

Q: With LLRHQRIHTGERPYKCPECWKSFS [G20W] as the variant, how does the protein stability index read?
A: Its protein stability index is 1.46.

Q: Which protein stability index does the source give for LLRHQRIHTGERPYKCPECHKSFS [G20H] here?
A: The protein stability index was 2.21.

Q: With LLRHQRIHTGERPYKCPECGGSFS [K21G] as the variant, how does the protein stability index read?
A: Its protein stability index is 1.83.

Q: Which protein stability index does the source give for LLRHQRIHTGERPYKCPECGHSFS [K21H] here?
A: The protein stability index was 2.82.

Q: Which protein stability index does the source give for LLRHQRIHTGERPYKCPECGVSFS [K21V] here?
A: Its protein stability index is 1.91.

Q: For LLRHQRIHTGERPYKCPECGISFS [K21I], which protein stability index is on record?
A: The protein stability index was 1.68.

Q: For LLRHQRIHTGERPYKCPECGNSFS [K21N], which protein stability index is on record?
A: Its protein stability index is 2.05.

Q: With LLRHQRIHTGERPYKCPECGLSFS [K21L] as the variant, how does the protein stability index read?
A: Its protein stability index is 2.77.

Q: For LLRHQRIHTGERPYKCPECGASFS [K21A], which protein stability index is on record?
A: The protein stability index was 2.93.

Q: With LLRHQRIHTGERPYKCPESGKSFS [C19S] as the variant, how does the protein stability index read?
A: Its protein stability index is 2.45.

Q: Which protein stability index does the source give for LLRHQRIHTGERPYKCPEWGKSFS [C19W] here?
A: Its protein stability index is 1.66.

Q: For LLRHQRIHTGERPYKCPEFGKSFS [C19F], which protein stability index is on record?
A: The protein stability index was 2.12.

Q: For LLRHQRIHTGERPYKCPEMGKSFS [C19M], which protein stability index is on record?
A: The protein stability index was 2.07.

Q: Which protein stability index does the source give for LLRHQRIHTGERPYKCPEDGKSFS [C19D] here?
A: Its protein stability index is 3.28.

Q: For LLRHQRIHTGERPYKCPEVGKSFS [C19V], which protein stability index is on record?
A: The protein stability index was 3.08.

Q: With LLRHQRIHTGERPYKCPEQGKSFS [C19Q] as the variant, how does the protein stability index read?
A: The protein stability index was 3.3.

Q: With LLRHQRIHTGERPYKCPEAGKSFS [C19A] as the variant, how does the protein stability index read?
A: Its protein stability index is 3.18.

Q: For LLRHQRIHTGERPYKCPEHGKSFS [C19H], which protein stability index is on record?
A: Its protein stability index is 3.21.

Q: For LLRHQRIHTGERPYKCPEEGKSFS [C19E], which protein stability index is on record?
A: The protein stability index was 3.31.

Q: Which protein stability index does the source give for LNRHQRIHTGERPYKCPECGKSFS [L2N] here?
A: The protein stability index was 3.27.

Q: With LSRHQRIHTGERPYKCPECGKSFS [L2S] as the variant, how does the protein stability index read?
A: The protein stability index was 3.11.

Q: Which protein stability index does the source give for LFRHQRIHTGERPYKCPECGKSFS [L2F] here?
A: Its protein stability index is 3.31.

Q: With LWRHQRIHTGERPYKCPECGKSFS [L2W] as the variant, how does the protein stability index read?
A: The protein stability index was 1.86.

Q: Which protein stability index does the source give for LPRHQRIHTGERPYKCPECGKSFS [L2P] here?
A: The protein stability index was 2.63.

Q: For LMRHQRIHTGERPYKCPECGKSFS [L2M], which protein stability index is on record?
A: Its protein stability index is 3.08.

Q: Which protein stability index does the source give for LDRHQRIHTGERPYKCPECGKSFS [L2D] here?
A: Its protein stability index is 3.39.

Q: Which protein stability index does the source give for LLRHQRIHTGERPYKCPVCGKSFS [E18V] here?
A: The protein stability index was 2.15.

Q: For LLRHQRIHTGERPYKCPNCGKSFS [E18N], which protein stability index is on record?
A: The protein stability index was 2.24.

Q: With LLRHQRIHTGERPYKCPWCGKSFS [E18W] as the variant, how does the protein stability index read?
A: The protein stability index was 3.24.

Q: Which protein stability index does the source give for LLRHQRIHTGERPYKCPYCGKSFS [E18Y] here?
A: Its protein stability index is 3.02.

Q: For LLRHQRIHTGERPYKCPLCGKSFS [E18L], which protein stability index is on record?
A: Its protein stability index is 2.24.

Q: For LLRHQRIHTGERPYKCPCCGKSFS [E18C], which protein stability index is on record?
A: The protein stability index was 1.86.

Q: Which protein stability index does the source give for LLRHQRIHTGERPYKCPDCGKSFS [E18D] here?
A: Its protein stability index is 1.96.

Q: Which protein stability index does the source give for LLRHQRIHTGERPYKCPICGKSFS [E18I] here?
A: The protein stability index was 2.42.

Q: For LLRHQRIHTGERPYKCPACGKSFS [E18A], which protein stability index is on record?
A: The protein stability index was 2.25.

Q: Which protein stability index does the source give for LLRHQRIHTGERPYKCPTCGKSFS [E18T] here?
A: Its protein stability index is 2.25.

Q: Which protein stability index does the source give for ILRHQRIHTGERPYKCPECGKSFS [L1I] here?
A: The protein stability index was 2.06.

Q: Which protein stability index does the source give for NLRHQRIHTGERPYKCPECGKSFS [L1N] here?
A: The protein stability index was 2.85.

Q: With YLRHQRIHTGERPYKCPECGKSFS [L1Y] as the variant, how does the protein stability index read?
A: The protein stability index was 3.07.

Q: With WLRHQRIHTGERPYKCPECGKSFS [L1W] as the variant, how does the protein stability index read?
A: Its protein stability index is 2.95.

Q: Which protein stability index does the source give for VLRHQRIHTGERPYKCPECGKSFS [L1V] here?
A: Its protein stability index is 3.03.

Q: For SLRHQRIHTGERPYKCPECGKSFS [L1S], which protein stability index is on record?
A: Its protein stability index is 2.26.

Q: For ELRHQRIHTGERPYKCPECGKSFS [L1E], which protein stability index is on record?
A: The protein stability index was 2.29.

Q: With LLRHQRIHTGERRYKCPECGKSFS [P13R] as the variant, how does the protein stability index read?
A: The protein stability index was 1.72.

Q: Which protein stability index does the source give for LLRHQRIHTGERLYKCPECGKSFS [P13L] here?
A: Its protein stability index is 2.73.

Q: With LLRHQRIHTGERWYKCPECGKSFS [P13W] as the variant, how does the protein stability index read?
A: Its protein stability index is 2.83.

Q: Which protein stability index does the source give for LLRHQRIHTGERKYKCPECGKSFS [P13K] here?
A: Its protein stability index is 1.78.

Q: For LLRHQRIHTGERVYKCPECGKSFS [P13V], which protein stability index is on record?
A: Its protein stability index is 2.54.

Q: Which protein stability index does the source give for LLRHQRIHTGERPYKCPECGKSFC [S24C] here?
A: The protein stability index was 3.14.
